Test results published in the RNAGym collection of RNA variant scans (doi:10.7554/elife.90254).

B1: OR4K15 (parent)
chain: GUUAACGGUCAUAGGCCAUGGAAACUAGGAGCACCAUUUCGCUGCCAGUGAAGAAAUGAACAAAGAAAAUCUGGGCCAGGCAGGCAUCAAAAGAAAUAGUCUUGCGCUCAACCAGAAAGUCUGUAAUCAUUUUAAGGGUA

Variants of: B1
Assay: self-cleavage, relative activity (ratio to wild type); higher = more cleavage; in vitro, sequencing; the parent is a self-cleaving ribozyme

In order of falling self-cleavage:
1. GUUAACGGUCAUAGGCCAUGGAAACUAGGAGCACCAUUUCGCUGCCAGUGAAGAAAUGAACAAAGAGAAUCUGGGCCAGGCAGGCAUCAAAAGAAAUAGUCUUGCGCUCAACCAGAAAGUAUGUAAUCAUUUUAAGGGUA  2.73
2. GUUAACGGUCAUAGGCCAUGGAAACUAGGAGCACCAUUUCGCUGCCAGUGAAGAAAUGAACAAAGAUAAUCUGGGCCAGGCAGGCAUCAAAAGAGAUAGUCUUGCGCUCAACCAGAAAGUCUGUAAUCAUUUUAAGGGUA  2.49
3. GUUAACGGUCAUAGGCCAUGGAAACUAGGAGCACCAUUUCGCUGCCAGUGAAGAAAUGAACAAAGAGAAUCUGGGCCAGGCAAGCAUCAAAAGAAAUAGUCUUGCGCUCAACCAGAAAGUCUGUAAUCAUUUUAAGGGUA  2.38
4. GUUAACGGUCAUAGGCCAUGGAAACUAGGAGCACCAUUUCGCUGCCAGUGAAGAAAUGAACAAAGAUAAUCUGGGCCAGGCAGGCAUCAAAAGAAAUAGUCUUGCGCUCAACCAGAGAGUCUGUAAUCAUUUUAAGGGUA  2.28
5. GUUAACGGUCAUAGGCCAUGGAAACUAGGAGCACCAUUUCGCUGCCAGUGAAGAAAUGAACAAAGAUAAUCUGGGCCAGGCAGGCAUCAAAGGAAAUAGUCUUGCGCUCAACCAGAAAGUCUGUAAUCAUUUUAAGGGUA  2.2
6. GUUAACGGUCAUAGGCCAUGGAAACUAGGAGCACCAUUUCGCUGCCAGUGAAGAAAUGAACAAAGAGAAUCUGGGCCAGGCAGGCAUCAAAAGAAAUAGUCUUGCGCUCAACCAGAAAGUCGGUAAUCAUUUUAAGGGUA  2.16
7. GUUAACGGUCAUAGGCCAUGGAAACUAGGAGCACCAUUUCGCUGCCAGUGAAGAAAUGAACAAAGAGAAUCUGGGCCAGGCAGGCAUCAAAAGAAAUAGUCUUGCGCUCAACCAGAAAGUCUGUAAUCAUUUUAAGUGUA  2.03
8. GUUAACGGUCAUAGGCCAUGGAAACUAGGAGCACCAUUUCGCUGCCAGUGAAGAAAUGAACAAAGAUAAUCUGGGCCAGGCAGGCAUCAAGAGAAAUAGUCUUGCGCUCAACCAGAAAGUCUGUAAUCAUUUUAAGGGUA  1.91
9. GUUAACGGUCAUAGGCCAUGGAAACUAGGAGCACCAUUUCGCUGCCAGUGAAGAAAUGAACAAAGAGAAUCUGGGCCAGGCAGGCAUCAAAAGAAAUAGUCUUGCGCUCAACCAGAAAGUCUGUAAUCAUUUUAAGGGAA  1.87
10. GUUAACGGUCAUAGGCCAUGGAAACUAGGAGCACCAUUUCGCUGCCAGUGAAGAAAUGAACAAAGAUAAUCUGGGCCAGGCAGGCAUCGAAAGAAAUAGUCUUGCGCUCAACCAGAAAGUCUGUAAUCAUUUUAAGGGUA  1.74
11. GUUAACGGUCAUAGGCCAUGGAAACUAGGAGCACCAUUUCGCUGCCAGUGAAGAAAUGAACAAAGAGAAUCUGGGCCAGGCAGGCAUCAAAAGAAAAAGUCUUGCGCUCAACCAGAAAGUCUGUAAUCAUUUUAAGGGUA  1.71
12. GUUAACGGUCAUAGGCCAUGGAAACUAGGAGCACCAUUUCGCUGCCAGUGAAGAAAUGAACAAAGAUAAUCUGGGCCAGGCAGGCAUCAAAAGAAGUAGUCUUGCGCUCAACCAGAAAGUCUGUAAUCAUUUUAAGGGUA  1.65
13. GUUAACGGUCAUAGGCCAUGGAAACUAGGAGCACCAUUUCGCUGCCAGUGAAGAAAUGAACAAAGAGAAUCUGGGCCAGGCAGGCAUCAAAAGAAAUAGUCUUGCGCUCAACCAGAAAGUCUGUAAUCAUUUUAAGGGCA  1.64
14. GUUAACGGUCAUAGGCCAUGGAAACUAGGAGCACCAUUUCGCUGCCAGUGAAGAAAUGAACAAAGAGAAUCUGGGCCAGGCAGGCAUCAAAAGAAAUAGUCUUGCGCUCAACCAGAAAGUCUGUAAUCAUUUUAAAGGUA  1.63
15. GUUAACGGUCAUAGGCCAUGGAAACUAGGAGCACCAUUUCGCUGCCAGUGAAGAAAUGAACAAAGAGAAUCUGGGCCAGGCAGGCAUCAAAAGAAAUAGUCUUGCGCUCAACCAGAAAGUCUGUAAUCAUUAUAAGGGUA  1.42
16. GUUAACGGUCAUAGGCCAUGGAAACUAGGAGCACCAUUUCGCUGCCAGUGAAGAAAUGAACAAAGAGAAUCUGGGCCAGGCAGGCAUCAAAAGAAAUAGUCUUGCGCUCAACCAGAAAGGCUGUAAUCAUUUUAAGGGUA  1.4
17. GUUAACGGUCAUAGGCCAUGGAAACUAGGAGCACCAUUUCGCUGCCAGUGAAGAAAUGAACAAAGAGAAUCUGGGCCAGGCAGGCAUCAAAAGAAAUAGUCUCGCGCUCAACCAGAAAGUCUGUAAUCAUUUUAAGGGUA  1.36
18. GUUAACGGUCAUAGGCCAUGGAAACUAGGAGCACCAUUUCGCUGCCAGUGAAGAAAUGAACAAAGAUAAUCUGGGCCAGGCAGGCAUCAAAAGGAAUAGUCUUGCGCUCAACCAGAAAGUCUGUAAUCAUUUUAAGGGUA  1.22
19. GUUAACGGUCAUAGGCCAUGGAAACUAGGAGCACCAUUUCGCUGCCAGUGAAGAAAUGAACAAAGAUAAUCUGGGCCAGGCAGGCAUCAAAAGAAAUAGUCUUGCGCUCAACCAGAAAGUCUGUGAUCAUUUUAAGGGUA  1.2
20. GUUAACGGUCAUAGGCCAUGGAAACUAGGAGCACCAUUUCGCUGCCAGUGAAGAAAUGAACAAAGAGAAUCUGGGCCAGGCAGGCACCAAAAGAAAUAGUCUUGCGCUCAACCAGAAAGUCUGUAAUCAUUUUAAGGGUA  1.19
21. GUUAACGGUCAUAGGCCAUGGAAACUAGGAGCACCAUUUCGCUGCCAGUGAAGAAAUGAACAAAGAGAAUCUGGGCCAGGCAGGCAUAAAAAGAAAUAGUCUUGCGCUCAACCAGAAAGUCUGUAAUCAUUUUAAGGGUA  1.16
22. GUUAACGGUCAUAGGCCAUGGAAACUAGGAGCACCAUUUCGCUGCCAGUGAAGAAAUGAACAAAGAGAAUCUGGGCCAGGCAGGCAUCAAAAGAAAUAGUCUUGCGCUCAACCAGAAAGUCUGUAACCAUUUUAAGGGUA  1.16
23. GUUAACGGUCAUAGGCCAUGGAAACUAGGAGCACCAUUUCGCUGCCAGUGAAGAAAUGAACAAAGAUAAUCUGGGCCAGGCAGGCAUCAAAAGAAAUAGUCUUGCGCUCAACCAGAAAGUCUGUAAUCUUUUUAAGGGUA  1.14
24. GUUAACGGUCAUAGGCCAUGGAAACUAGGAGCACCAUUUCGCUGCCAGUGAAGAAAUGAACAAAGAUAGUCUGGGCCAGGCAGGCAUCAAAAGAAAUAGUCUUGCGCUCAACCAGAAAGUCUGUAAUCAUUUUAAGGGUA  1.13
25. GUUAACGGUCAUAGGCCAUGGAAACUAGGAGCACCAUUUCGCUGCCAGUGAAGAAAUGAACAAAGAGAAUCUGGGCCAGGCAGGCAUCAAAAGAAAUAGUCUUGCGCUCAACCAGAAAGUCUGUAAUCAUUUCAAGGGUA  1.12
26. GUUAACGGUCAUAGGCCAUGGAAACUAGGAGCACCAUUUCGCUGCCAGUGAAGAAAUGAACAAAGAGAAUCUGGGCCAGGCAGGCAUCAAAAGAAAUAGUCUUGCGCUCAACCAGAAAGUCUGUAAUCAUUUUAAGGAUA  0.97
27. GUUAACGGUCAUAGGCCAUGGAAACUAGGAGCACCAUUUCGCUGCCAGUGAAGAAAUGAACAAAGAGAAUCUGGGCCAGGCAGGCAUCAAAAGAAAUAGUCUUGCGCUCAACCAGAAAGUCUGCAAUCAUUUUAAGGGUA  0.87
28. GUUAACGGUCAUAGGCCAUGGAAACUAGGAGCACCAUUUCGCUGCCAGUGAAGAAAUGAACAAAGAGAAUCUGGGCCAGGCAGGCAUCAAAAGAAAUAGUCUUGCGCUCAACCAGAAAGCCUGUAAUCAUUUUAAGGGUA  0.83
29. GUUAACGGUCAUAGGCCAUGGAAACUAGGAGCACCAUUUCGCUGCCAGUGAAGAAAUGAACAAAGAGAAACUGGGCCAGGCAGGCAUCAAAAGAAAUAGUCUUGCGCUCAACCAGAAAGUCUGUAAUCAUUUUAAGGGUA  0.72
30. GUUAACGGUCAUAGGCCAUGGAAACUAGGAGCACCAUUUCGCUGCCAGUGAAGAAAUGAACAAAGAGAAGCUGGGCCAGGCAGGCAUCAAAAGAAAUAGUCUUGCGCUCAACCAGAAAGUCUGUAAUCAUUUUAAGGGUA  0.68
31. GUUAACGGUCAUAGGCCAUGGAAACUAGGAGCACCAUUUCGCUGCCAGUGAAGAAAUGAACAAAGAUAAUCUGGGCCAGGCAGGCAUCAAAAGAAAUAGUCUUGCGCUCAACCAGAAUGUCUGUAAUCAUUUUAAGGGUA  0.53
32. GUUAACGGUCAUAGGCCAUGGAAACUAGGAGCACCAUUUCGCUGCCAGUGAAGAAAUGAACAAAGAGAAUCUGGGCCAGGCAGUCAUCAAAAGAAAUAGUCUUGCGCUCAACCAGAAAGUCUGUAAUCAUUUUAAGGGUA  0.35
33. GUUAACGGUCAUAGGCCAUGGAAACUAGGAGCACCAUUUCGCUGCCAGUGAAGAAAUGAACAAAGAGAAUCCGGGCCAGGCAGGCAUCAAAAGAAAUAGUCUUGCGCUCAACCAGAAAGUCUGUAAUCAUUUUAAGGGUA  0.32
34. GUUAACGGUCAUAGGCCAUGGAAACUAGGAGCACCAUUUCGCUGCCAGUGAAGAAAUGAACAAAGAGAAUCAGGGCCAGGCAGGCAUCAAAAGAAAUAGUCUUGCGCUCAACCAGAAAGUCUGUAAUCAUUUUAAGGGUA  0.26
35. GUUAACGGUCAUAGGCCAUGGAAACUAGGAGCACCAUUUCGCUGCCAGUGAAGAAAUGAACAAAGAUAAUCUGGGCCAGGCAGGCAUCAAAAGAAAUAGUCUUGCGCUCGACCAGAAAGUCUGUAAUCAUUUUAAGGGUA  0.25
36. GUUAACGGUCAUAGGCCAUGGAAACUAGGAGCACCAUUUCGCUGCCAGUGAAGAAAUGAACAAAGAGAAUCUGUGCCAGGCAGGCAUCAAAAGAAAUAGUCUUGCGCUCAACCAGAAAGUCUGUAAUCAUUUUAAGGGUA  0.24
37. GUUAACGGUCAUAGGCCAUGGAAACUAGGAGCACCAUUUCGCUGCCAGUGAAGAAAUGAACAAAGAGAAUCUGGACCAGGCAGGCAUCAAAAGAAAUAGUCUUGCGCUCAACCAGAAAGUCUGUAAUCAUUUUAAGGGUA  0.11
38. GUUAACGGUCAUAGGCCAUGGAAACUAGGAGCACCAUUUCGCUGCCAGUGAAGAAAUGAACAAAGAGAAUCUGGGCCAGGCAGGCAUCAAAAGAAAUAGUCUUACGCUCAACCAGAAAGUCUGUAAUCAUUUUAAGGGUA  0.08
39. GUUAACGGUCAUAGGCCAUGGAAACUAGGAGCACCAUUUCGCUGCCAGUGAAGAAAUGAACAAAGAGAAUCUGGGCCAGGCAGGCAUCAAAAGAAAUAGUCUUGCGCACAACCAGAAAGUCUGUAAUCAUUUUAAGGGUA  0.02
40. GUUAACGGUCAUAGGCCAUGGAAACUAGGAGCACCAUUUCGCUGCCAGUGAAGAAAUGAACAAAGAGAAUCUGGGCCAGGCAGGCAUCAAAAGAAAUAGUCUUGCGCCCAACCAGAAAGUCUGUAAUCAUUUUAAGGGUA  0.02
41. GUUAACGGUCAUAGGCCAUGGAAACUAGGAGCACCAUUUCGCUGCCAGUGAAGAAAUGAACAAAGAGAAUCUGGGCCAGGCAGGCAUCAAAAGAAAUAGUCUUGCGUUCAACCAGAAAGUCUGUAAUCAUUUUAAGGGUA  0.01
